These results are taken from patent EP2057188B1.

Residue numbers refer to the chain shown, from its start. Several values for one entry are separate records, joined by “and”; a condition that tells them apart may be missing. Identical values can stand only once. Like-named read-outs stand apart in the source and are kept apart here.

Test [1] addresses T1, GIP Receptor (Rattus norvegicus (Rat)), P43219.
T1 chain: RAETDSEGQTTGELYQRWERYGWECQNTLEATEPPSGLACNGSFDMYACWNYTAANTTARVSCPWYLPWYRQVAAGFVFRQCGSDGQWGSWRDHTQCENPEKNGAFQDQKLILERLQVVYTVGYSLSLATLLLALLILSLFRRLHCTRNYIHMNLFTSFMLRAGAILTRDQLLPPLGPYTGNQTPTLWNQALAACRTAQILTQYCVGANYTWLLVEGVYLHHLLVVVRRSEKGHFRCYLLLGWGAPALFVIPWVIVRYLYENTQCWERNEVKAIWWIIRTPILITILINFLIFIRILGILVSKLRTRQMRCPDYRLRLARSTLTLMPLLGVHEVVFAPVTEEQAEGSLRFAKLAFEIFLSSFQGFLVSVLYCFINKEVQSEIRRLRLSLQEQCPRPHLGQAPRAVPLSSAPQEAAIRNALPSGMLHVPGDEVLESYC
In words: cell-based or functional assay.

Test [2] has as its target T1, GIP Receptor (Rattus norvegicus (Rat)), …. In words: GIP RBA, RIN.
Test [3] concerns the target T2, human GIP receptor (human), P48546.
T2 chain: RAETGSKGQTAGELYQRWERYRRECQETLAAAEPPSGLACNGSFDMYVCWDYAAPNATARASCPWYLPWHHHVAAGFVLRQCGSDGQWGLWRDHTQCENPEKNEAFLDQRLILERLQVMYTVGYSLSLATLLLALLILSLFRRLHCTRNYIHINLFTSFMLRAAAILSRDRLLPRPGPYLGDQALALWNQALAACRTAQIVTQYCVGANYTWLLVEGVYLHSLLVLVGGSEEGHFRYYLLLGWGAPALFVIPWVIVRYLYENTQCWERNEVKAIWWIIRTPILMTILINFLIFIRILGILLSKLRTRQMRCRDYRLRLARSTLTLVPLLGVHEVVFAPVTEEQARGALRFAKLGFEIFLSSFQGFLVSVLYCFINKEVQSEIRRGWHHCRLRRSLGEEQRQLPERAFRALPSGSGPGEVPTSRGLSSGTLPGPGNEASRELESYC
In words: 125I-GIP displacement, 10 nM analog, HEK-GIPR.

Test [4] shares this target. In words: 125I-GIP displacement, HEK-GIPR.
Test [5] has the same target. In words: 125I-GIP displacement, HEK-GIPR.
For test [6], the target named is T1, GIP Receptor (Rattus norvegicus (Rat)), …. In words: cell-based or functional assay.
Test [7] shares this target. In words: GIP RBA.

B1: 0601GIP4386 (peptide)
peptide: YSDGTFISDYSIAMDKIHQQDFVNWLLAQKPKKIRYS
modifications: not checked
One may read the IC50 as the concentration that gives 50% inhibition. Take B1: in test [1], the GIPR Cyclase was 56. In test [2], this molecule came in with a half-inhibitory concentration (IC50) of 156 nM.

B2: 0601GIP4233 (peptide)
peptide: B1 peptide with S2A, D3E
modifications: not checked
Molecule B2 had a %Inh 10nM in test [3] of 89%. Further, the 50% inhibitory concentration (IC50) in test [4] was 0.12 nM and 0.41 nM; in test [5], 0.21 nM.

B3: 0601GIP4178 (peptide)
peptide: YAEGTFISDYSIAMDKIHQQDFVNWLLAQKPSSGAPPPS
modifications: not checked
With B3, the Cyclase stood at 96 in test [1] and 36.2 in test [6]. The molecule also came in with a concentration for half-maximal inhibition (IC50) in test [5] of 0.17 nM.

B4: 0601GIP4252 (peptide)
peptide: B3 peptide
modifications: not checked
As to B4, the IC50 in test [7] is 5.6 nM. Further, in test [6], the Cyclase is 154.
